Experimental data as given in patent US20240317847A1 (Bayer, published 2024).

T1: human IL-11 (human, UniProt P20809 22-199)
T1 construct: Invigate recombinant protein; biotinylated when immobilized in the Di-complex ELISA; also called hIL11; hIL-11
T1 sequence: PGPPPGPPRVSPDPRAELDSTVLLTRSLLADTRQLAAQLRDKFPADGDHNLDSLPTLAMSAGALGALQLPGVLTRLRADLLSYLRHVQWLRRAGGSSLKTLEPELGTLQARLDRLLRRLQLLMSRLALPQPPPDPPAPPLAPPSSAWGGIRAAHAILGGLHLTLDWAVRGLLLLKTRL

T2: human IL-11 (human, UniProt P20809 22-199)
T2 construct: Invigate, e.g. lot #C121021-19; biotinylated where coated in the ELISA; also called hIL-11; hIL11
T2 sequence: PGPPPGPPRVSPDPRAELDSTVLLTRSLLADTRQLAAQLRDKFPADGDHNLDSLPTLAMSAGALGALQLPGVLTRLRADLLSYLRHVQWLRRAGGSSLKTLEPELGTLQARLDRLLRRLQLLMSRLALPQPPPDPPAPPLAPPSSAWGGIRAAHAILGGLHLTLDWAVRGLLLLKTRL


How the values were obtained:
human IL-11 [1] = biological target: T1, human IL-11; assay: Di-complex ELISA, canine IL11RA-hFc binding to immobilized hIL-11, competition
Method: In the Di-complex ELISA format anti IL-11 antibodies are tested for the ability to interfere with the formation of complexes consisting of immobilized murine IL-11 (Invigate, e.g., lot #C210819-09) or human IL-11 (Invigate, e.g., lot #C121021-19), and murine IL11RA-Fc fusion proteins or canine IL11RA-human-Fc fusion protein (FIG. 17a, b).
Bispecific antibodies were subjected to the experimental assay procedure described in Example 18 and IC50 [M], respectively efficacy (%) were calculated accordingly.

human IL-11 [2] = biological target: T2, human IL-11; assay: Di-complex ELISA, competitor canine IL11RA-Fc on coated IL-11; Di-complex ELISA (blocking of IL-11/IL-11Ra), weak partial inhibition, efficacy 17.4%
Method: The assay is performed using streptavidin coated microtiter plates (Greiner bio-one, #781997). In a first step, 10 nM biotinylated mouse IL-11 (Invigate, Germany, e.g., lot #C210819-09) or human IL-11 (Invigate, Germany, e.g., lot #C121021-19) is coated in 25 μl PBS on the plate at 4° C. overnight. Next day, the plate is washed three times with 50 μl PBST and then blocked with 50 μl SmartBlock (Candor, #113125) for one hour at room temperature (RT). After additional three washes with PBST, 25 μl of a mixture of the murine anti IL-11 antibody and recombinant canine IL11RA-Fc fusion protein (Sino Biological, #70078-D02H) in PBS-T, 10% Smartblock are added simultaneously to the plate and incubated for one hour at RT. […] After three additional washes with PBS-T, 25 μl anti-human-POD (Sigma, #A0170) in PBS-T, 10% Smartblock is added and incubated for 1 hour at RT. After a final three washes with PBS-T, 25 μl AmplexRed (Fisher Scientific, A12222), 1/1000 in PBS, 0,003% H₂O₂, is added as substrate and incubated for 15 min at RT in the dark. Then, the fluorescence is measured with a plate reader at 535/595 nm. […] Efficacy was calculated as [(signal measured at lowest antibody concentration−signal measured at the highest antibody concentration)×100] divided by (signal measured at lowest antibody concentration−signal measured in the absence of IL11Ra). […]

IC50 (human IL-11 [1]) [nM]	IC50 (human IL-11 [2]) [nM]	Binder
1.7		TPP-29603 (bispecific antibody, IgG1, scFv-kih-mIgG1; bispecific comprising CDRs of TPP-29528 and TPP-29519) chain 1: QVQLVESGGGVVQPGRSLRLSCAASGFTFSHYDMHWVRQAPGKGLEWVAVISYHGSVKFYADSVKGRFTISRDNSKNTLYLQMNSLRAEDTAVYYCARTPGFHFDYWGQGTLVTVSSGGGGSGGGGSGGGGSQSVLTQPPSASGTPGQRVTISCSGSSSNIGSNYVSWYQQLPGTAPKLLIYYDDLRPSGVPDRFSGSKSGTSASLAISGLRSEDEADYYCSAWDDSLSGVVFGGGTKLTVLGGGGSGGGGSGGGGSGVECPPCPAPPVAGPSVFIFPPKPKDVLTITLTPKVTCVVVDISKDDPEVQFSWFVDDVEVHTAQTQPREEQFNSTFRSVSELPIMHQDWLNGKEFKCRVNSAAFPAPIEKTISKTKGRPKAPQVYTIPPCKEQMAKDKVSLWCMITDFFPEDITVEWQWNGQPAENYKNTQPIMDTDGSYFVYSKLNVQKSNWEAGNTFTCSVLHEGLHNHHTEKSLSHSPGK chain 2: EVQLLESGGGLVQPGGSLRLSCAASGFTFSSYGMHWVRQAPGKGLEWVAVISYDGSYKYYADSVKGRFTISRDNSKNTLYLQMNSLRAEDTAVYYCAAGVPDYWGQGTLVTVSSGGGGSGGGGSGGGGSQSVLTQPPSASGTPGQRVTISCSGSSSNIGSDYDVHWYQQLPGTAPKLLIYSNEERPSGVPDRFSGSKSGTSASLAISGLRSEDEADYYCSAWDSSLSGPVFGGGTKLTVLGGGGSGGGGSGGGGSGVECPPCPAPPVAGPSVFIFPPKPKDVLTITLTPKVTCVVVDISKDDPEVQFSWFVDDVEVHTAQTQPREEQFNSTFRSVSELPIMHQDWLNGKEFKCRVNSAAFPAPIEKTISKTKGRPKAPQVCTIPPPKEQMAKDKVSLSCAITDFFPEDITVEWQWNGQPAENYKNTQPIMDTDGSYFVVSKLNVQKSNWEAGNTFTCSVLHEGLHNHHTEKSLSHSPGK
	12	TPP-18068 (antibody, mouse IgG1, mIgG1, Lambda) heavy: EVQLLESGGGLVQPGGSLRLSCAASGFTFSSYGMHWVRQAPGKGLEWVSVISYDGSYKYYADSVKGRFTISRDNSKNTLYLQMNSLRAEDTAVYYCAAGVPDYWGQGTLVTVSSAKTTPPSVYPLAPGSAAQTNSMVTLGCLVKGYFPEPVTVTWNSGSLSSGVHTFPAVLQSDLYTLSSSVTVPSSTWPSETVTCNVAHPASSTKVDKKIVPRDCGCKPCICTVPEVSSVFIFPPKPKDVLTITLTPKVTCVVVDISKDDPEVQFSWFVDDVEVHTAQTQPREEQFNSTFRSVSELPIMHQDWLNGKEFKCRVNSAAFPAPIEKTISKTKGRPKAPQVYTIPPPKEQMAKDKVSLTCMITDFFPEDITVEWQWNGQPAENYKNTQPIMDTDGSYFVYSKLNVQKSNWEAGNTFTCSVLHEGLHNHHTEKSLSHSPGK light: QSVLTQPPSASGTPGQRVTISCTGSSSNIGAGYDVHWYQQLPGTAPKLLIYSNNERPSGVPDRFSGSKSGTSASLAISGLRSEDEADYYCAAWDDSLNGPVFGGGTKLTVLGQPKSSPSVTLFPPSSEELETNKATLVCTITDFYPGVVTVDWKVDGTPVTQGMETTQPSKQSNNKYMASSYLTLTARAWERHSSYSCQVTHEGHTVEKSLSRADCS
